In patent US20210038528:

What was measured:
[1] = test system: T1, CGPLGLAGGERDGC (MMP9 substrate) peptide cross-linker as presented in MMP9-NANs
T1 sequence: CGPLGLAGGERDGC

[2] = test system: T2, CGFLGC (cathepsin B substrate) peptide cross-linker as presented in CathB-NANs
T2 sequence: CGFLGC

Substance	dye release from pep-NAN at pH 7 (fluorescence assay) [1]	dye release from pep-NAN (fluorescence assay) [1]	dye release from pep-NAN at pH 5 (fluorescence monitoring) [1]	dye release from pep-NAN (fluorescence assay) [2]	time to comparable fluorescence change, relative to MMP9-NAN degradation by MMP9 [2]
MMP1	The results of these experiments indicated that the MMP9-NAN is specific to the MMP9 enzyme				
MMP2	The results of these experiments indicated that the MMP9-NAN is specific to the MMP9 enzyme				
MMP9 enzyme (matrix metalloproteinase 9)		MMP9-NANs and CathB-NANs released their dye when treated with their intended enzyme targets, MMP9 and cathepsin B, respectively	Exposure of MMP9-NANs to cathepsin B and MMP9 at pH 5 resulted in no observable change in fluorescence		
cathepsin B		Cathepsin B activity on MMP9-NANs was also evaluated, in which no fluorescence change was observed		MMP9-NANs and CathB-NANs released their dye when treated with their intended enzyme targets, MMP9 and cathepsin B, respectively	it takes ˜20× as long to see comparable fluorescence changes in solution when cathepsin B is added to a solution of CathB-NANs as compared to MMP9-NAN degradation by MMP9
